In PMC10267149, “The structure of phosphatidylinositol remodeling MBOAT7 reveals its catalytic mechanism and enables inhibitor identification” (Nature Communications, 2023) one finds Km data, which are given here for 1 protein.

Substrate in the data set: CCCCC/C=C\C/C=C\C/C=C\C/C=C\CCCC(=O)SCCNC(=O)CCNC(=O)[C@H](O)C(C)(C)COP(=O)(O)OP(=O)(O)OC[C@H]1O[C@@H](n2cnc3c(N)ncnc32)[C@H](O)[C@@H]1OP(=O)(O)O
The data set can be described thus: fluorescence assay of CoA-SH release with CPM. The class given is biochemical, Homo sapiens. Conditions: PMAL-C8 reconstituted, 100 µM lyso-PI, pH 7.5, 37 °C, 2 mg/ml BSA.

B1: MBOAT7 (Homo sapiens) (protein)
chain: MSPEEWTYLVVLLISIPIGFLFKKAGPGLKRWGAAAVGLGLTLFTCGPHTLHSLVTILGTWALIQAQPCSCHALALAWTFSYLLFFRALSLLGLPTPTPFTNAVQLLLTLKLVSLASEVQDLHLAQRKEMASGFSKGPTLGLLPDVPSLMETLSYSYCYVGIMTGPFFRYRTYLDWLEQPFPGAVPSLRPLLRRAWPAPLFGLLFLLSSHLFPLEAVREDAFYARPLPARLFYMIPVFFAFRMRFYVAWIAAECGCIAAGFGAYPVAAKARAGGGPTLQCPPPSSPEKAASLEYDYETIRNIDCYSTDFCVRVRDGMRYWNMTVQWWLAQYIYKSAPARSYVLRSAWTMLLSAYWHGLHPGYYLSFLTIPLCLAAEGRLESALRGRLSPGGQKAWDWVHWFLKMRAYDYMCMGFVLLSLADTLRYWASIYFCIHFLALAALGLGLALGGGSPSRRKAASQPTSLAPEKLREE
notes: full-length (1-472), C-terminal GFP-strepII removed by TEV; expressed in HEK293 freestyle cells; digitonin then amphipol PMAL-C8; monomer, 53 kDa
With B1, the Km (in general, the substrate concentration at which the rate is half of its maximum) is reported as 46 µM.
